Laboratory results as given in US20250127807A1, “TREATMENT OF VAGINAL DYSBIOTIC CONDITIONS WITH ASSOCIATED ELEVATED VAGINAL CALPROTECTIN” (priority 2022, published 2025).

Set-up: species or system women
Details: in vivo
Experimental: Elevated levels of calprotectin in BV and in L iners-dominated vaginal microbiomes sequester manganese and zinc, preventing growth of L crispatus its maintenance of a healthy vaginal microbiome. […] Six women each received 3 doses of formulation Z2 separated by 48 hours. Vaginal fluid swabs were collected at t=0, 2, 4, 8, 12, 18, 24, 30, 36, and 42 hours post dose and vaginal fluid concentrations of lactoferrin and mannitol were determined. Average concentrations for the combined 18 dose administrations were obtained based on calculation of Area Under Curve for the locally estimated scatterplot smoothing (Loess) profile of lactoferrin and mannitol concentrations assuming 6 mL volume of distribution. The average concentration of lactoferrin was 33 mg/mL and the average concentrations of mannitol was 20 mg/mL. Average concentrations of both substances correspond to 0.1 fraction or 10% of the administered dose, 300 mg lactoferrin and 195 mg mannitol per Z2 tablet respectively. The 0.1 factor was used to estimate the expected average elemental Mn concentration based on the initial dose per tablet.

B1: lactoferrin (protein, UniProt P24627 20-708, looked up)
Lactotransferrin: APRKNVRWCTISQPEWFKCRRWQWRMKKLGAPSITCVRRAFALECIRAIAEKKADAVTLDGGMVFEAGRDPYKLRPVAAEIYGTKESPQTHYYAVAVVKKGSNFQLDQLQGRKSCHTGLGRSAGWIIPMGILRPYLSWTESLEPLQGAVAKFFSASCVPCIDRQAYPNLCQLCKGEGENQCACSSREPYFGYSGAFKCLQDGAGDVAFVKETTVFENLPEKADRDQYELLCLNNSRAPVDAFKECHLAQVPSHAVVARSVDGKEDLIWKLLSKAQEKFGKNKSRSFQLFGSPPGQRDLLFKDSALGFLRIPSKVDSALYLGSRYLTTLKNLRETAEEVKARYTRVVWCAVGPEEQKKCQQWSQQSGQNVTCATASTTDDCIVLVLKGEADALNLDGGYIYTAGKCGLVPVLAENRKSSKHSSLDCVLRPTEGYLAVAVVKKANEGLTWNSLKDKKSCHTAVDRTAGWNIPMGLIVNQTGSCAFDEFFSQSCAPGADPKSRLCALCAGDDQGLDKCVPNSKEKYYGYTGAFRCLAEDVGDVAFVKNDTVWENTNGESTADWAKNLNREDFRLLCLDGTRKPVTEAQSCHLAVAPNHAVVSRSDRAAHVKQVLLHQQALFGKNGKNCPDKFCLFKSETKNLLFNDNTECLAKLGGRPTYEEYLGTEYVTAIANLKKCSTSPLLEACAFLTR
  average concentration as fraction of the administered dose: 10%
